From PMC5438564

Tests used:
Fyn [1] = molecular target: Fyn (UniProt P39688); experiment: proximity ligation assay (PLA), Fyn3 + Tau1 antibodies (tau unphosphorylated at S198/S199/S202); conditions: transfected Mapt-/- neurons; n = 16-31 neurons per construct from two experiments; parent: est. 1.0; read off a plot
Fyn [2] = molecular target: Fyn (UniProt P39688); experiment: proximity ligation assay (PLA), Fyn3 + Tau5 antibodies (total tau); conditions: transfected Mapt-/- neurons; n = 16-31 neurons per construct from two experiments; parent: est. 1.0; read off a plot

Row | Substance | ratio to parent (Fyn [1]) | ratio to parent (Fyn [2])
1 | wildtype 0N4R mouse tau (mTau^WT) P216A; P219A | 1.1 | 0.41
2 | wildtype 0N4R mouse tau (mTau^WT) P233A; P236A | 0.2 | 0.2
3 | wildtype 0N4R mouse tau (mTau^WT) Y18F | 1.7 | 0.3
